Experiment [1] has as its target AtGATA18 ZnF domain (Arabidopsis thaliana) (UniProt Q8LC79). Nature of the experiment: ITC. In general terms: In ITC the heat of successive injections is recorded.
Experiment [2] deals with MqGATA triple mutant (Y-R, M-K, N-R) (Macrosteles quadrilineatus). The experiment is described as follows: ITC.
The target in experiment [3] is AtSPL5 ZnF domain (residues 60-124) (Arabidopsis thaliana) (UniProt Q9S758). The experiment is described as follows: ITC.
For another experiment, the target named is AtGATA18 ZnF domain (UniProt Q8LC79). Nature of the experiment: ITC.
The target of experiment [4] is AtSPL5 ZnF domain (residues 60-124) (UniProt Q9S758). The experiment is described as follows: ITC.
Experiment [5] concerns the target AtSPL5 ZnF domain (residues 60-124) (Arabidopsis thaliana) (UniProt Q9S758). The experiment is described as follows: ITC; MicroCal PEAQ-ITC, 16 °C, 20 mM Tris-HCl pH 7.5, 150 mM NaCl; 660-700 μM protein injected into 40-50 μM protein in the cell; SAP05 titrated to the transcription factor; one-site model.
The target in experiment [6] is AtGATA18 ZnF domain (Arabidopsis thaliana) (UniProt Q8LC79). The experiment is described as above.
The target in experiment [7] is T1, OY-M SAP05 (residues 33-135).
T1 chain: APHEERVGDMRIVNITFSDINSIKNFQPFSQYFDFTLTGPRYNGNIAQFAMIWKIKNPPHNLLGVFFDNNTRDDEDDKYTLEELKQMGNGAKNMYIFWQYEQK
The experiment is described as follows: ITC. To be noted: chain shown with the change.

Regarding “OY-M SAP05 (residues 33-135) (domain or fragment)”, the Kd (usually the constant that tells how readily two partners part at equilibrium) in experiment [1] was found to be 140 nM; in experiment [2], 900 nM; in experiment [3] it was 420 nM.
The molecule OY-M SAP05 (residues 33-135) D106A showed a dissociation constant Kd in the experiment with AtGATA18 ZnF domain of 4000 nM.
Consider OY-M SAP05 (residues 33-135) D108A, for which the Kd with AtGATA18 ZnF domain is 5400 nM.
OY-M SAP05 (residues 33-135) E107A: the Kd was found to be 1300 nM in the experiment with AtGATA18 ZnF domain and 6300 nM in experiment [4].
OY-M SAP05 (residues 33-135) I84A came in with a Kd in the experiment with AtGATA18 ZnF domain of over 100000 nM.
In experiment [5], OY-M SAP05 E107A (domain or fragment) came in with a fold decrease of binding affinity against wild-type SAP05 of 15 fold.
“WBDLa SAP05 double mutant M86I-K70T (natural protein)”: the Kd came to 2700 nM in experiment [6] and 2600 nM in experiment [5].
On to “binary complex AtRPN10-SAP05 (from UniProt P55034 33-135; P55034 1-193)”, for which the Kd in experiment [1] came out at 100 nM; in experiment [3], 370 nM.

B1: AtSPL5 ZnF domain (residues 60-124), Q9S758 S108A (protein)
chain: SRLCQVDRCTVNLTEAKQYYRRHRVCEVHAKASAATVAGVRQRFCQQCARFHELPEFDEAKRSCR
In experiment [7], B1 came in with a dissociation constant (Kd) of 1400 nM.

B2: AtGATA18 ZnF domain, Q8LC79 R182A (protein)
chain: GDSLLARRCANCDTTSTPLWRNGPRGPKSLCNACGIAFKKEERRTTAATGNT
B2 registered a Kd in experiment [7] of 4400 nM.

B3: AtGATA18 ZnF domain, Q8LC79 K185A (protein)
chain: GDSLLARRCANCDTTSTPLWRNGPRGPKSLCNACGIRFKAEERRTTAATGNT
For the molecule B3, in experiment [7], the Kd was determined as 580 nM.

B4: AtGATA18 ZnF domain, Q8LC79 R188A (protein)
chain: GDSLLARRCANCDTTSTPLWRNGPRGPKSLCNACGIRFKKEEARTTAATGNT
As for B4, the Kd in experiment [7] came to 500 nM.

B5: AtGATA18 ZnF domain, Q8LC79 I181A (protein)
chain: GDSLLARRCANCDTTSTPLWRNGPRGPKSLCNACGARFKKEERRTTAATGNT
In the case of B5, in experiment [7], the Kd was determined as 5000 nM.

(Values after article PMC10850148.)
